Assay results reported in US20260184814A1, “BROADLY NE[…] INFLUENZA NEURAMINIDASE” (priority 2022, published 2026).
pKd: −log10 of the molar value.

Key:
[1] = molecular target: N2 A/HongKong/2671/2019 (Influenza A virus (H3N2))
[2] = molecular target: N2 A/Switzerland/8060/2017 (Influenza A virus (H3N2))

For 1G01 Fab, the pKd [1] was > 10.70 and the pKd [2] was > 10.70.
